Assays:
[1] = molecular target: T1, recombinant human HSP70‐1A protein (human, UniProt P0DMV8 1-641); test: ELISA; substrate-binding assay: CMLA immobilised at 500 ng per well; 50 ng per well HSP70-1A or dnaJ-B1 in 20 mM Tris-HCl pH 7.5, 20 mM NaCl, 10 mM MgCl2, 0.2% BSA, 60 min at 30 °C; detected with anti-HSP70 or anti-DNAJB1 pAb and alkaline phosphatase-labelled secondary antibody; with dimethylsulfoxide, GO-Y030 or PFT-μ; settings: both partners purified
T1 construct: recombinant human HSP70-1A (gene HSPA1A), bought from StressMarq Biosciences; No catalogue number printed; source: bought: StressMarq Biosciences
T1 sequence (P0DMV8 whole entry): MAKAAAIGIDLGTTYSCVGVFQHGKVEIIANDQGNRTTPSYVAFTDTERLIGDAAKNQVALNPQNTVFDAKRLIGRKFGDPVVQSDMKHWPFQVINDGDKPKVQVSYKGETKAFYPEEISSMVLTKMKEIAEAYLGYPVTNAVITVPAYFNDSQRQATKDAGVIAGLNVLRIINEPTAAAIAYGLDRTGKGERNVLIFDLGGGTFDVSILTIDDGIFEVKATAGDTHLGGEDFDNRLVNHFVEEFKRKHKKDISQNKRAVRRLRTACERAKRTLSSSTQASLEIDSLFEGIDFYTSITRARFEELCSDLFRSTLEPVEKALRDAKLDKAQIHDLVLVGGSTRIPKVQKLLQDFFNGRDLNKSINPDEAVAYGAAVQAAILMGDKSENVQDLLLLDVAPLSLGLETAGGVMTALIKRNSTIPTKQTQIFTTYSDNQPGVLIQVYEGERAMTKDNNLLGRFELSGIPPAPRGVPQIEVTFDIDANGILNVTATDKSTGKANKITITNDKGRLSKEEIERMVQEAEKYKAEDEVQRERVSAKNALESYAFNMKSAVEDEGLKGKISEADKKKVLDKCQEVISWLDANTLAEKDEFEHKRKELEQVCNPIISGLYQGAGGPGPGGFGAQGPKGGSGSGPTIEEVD

[2] = molecular target: T2, recombinant human HSP40/Hdj1 (dnaJ‐B1) protein (human, UniProt P25685 1-340); test: as above; settings: both partners purified
T2 construct: recombinant human HSP40/Hdj1 (dnaJ-B1, gene DNAJB1), bought from Enzo Life Sciences; No catalogue number printed; source: bought: Enzo Life Sciences
T2 sequence (P25685 whole entry): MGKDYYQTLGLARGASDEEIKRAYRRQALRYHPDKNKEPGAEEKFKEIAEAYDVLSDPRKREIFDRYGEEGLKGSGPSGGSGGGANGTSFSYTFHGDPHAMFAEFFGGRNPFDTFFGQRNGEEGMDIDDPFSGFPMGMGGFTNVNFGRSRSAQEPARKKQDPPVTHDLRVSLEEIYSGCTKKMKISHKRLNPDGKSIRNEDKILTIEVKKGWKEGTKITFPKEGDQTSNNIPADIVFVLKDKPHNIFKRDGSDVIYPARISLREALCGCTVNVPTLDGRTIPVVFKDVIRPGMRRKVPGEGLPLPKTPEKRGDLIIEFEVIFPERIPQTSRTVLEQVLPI

B1: carboxymethylated α‐lactalbumin (natural protein, bovine, UniProt P00711 20-142, looked up)
chain: EQLTKCEVFRELKDLKGYGGVSLPEWVCTTFHTSGYDTQAIVQNNDSTEYGLFQINNKIWCKDDQNPHSSNICNISCDKFLDDDLTDDIMCVKKILDKVGINYWLAHKALCSEKLDQWLCEKL
modifications: reduced with 20 mM dithiothreitol in 8 M urea and alkylated with 40 mM iodoacetamide (called carboxymethylated); permanently unfolded
notes: also called CMLA; carboxymethylated lactalbumin; source: bovine α-lactalbumin bought: Sigma-Aldrich; reduced in 8 M urea with dithiothreitol, alkylated with iodoacetamide, dialysed against PBS
[1]
  binding result: binds
[2]
  binding result: binds

— article PMC9989923, “A curcumin analogue GO‐Y030 depletes cancer stem cells by inhibiting the interaction between the HSP70/HSP40 complex and its substrates” (FEBS Open Bio, 2023)
